Reference: paper PMC2680711 (Nature structural & molecular biology, 2008)

T1: Rtt109 (recombinant, purified) (yeast, UniProt Q07794 1-436)
T1 sequence (looked up): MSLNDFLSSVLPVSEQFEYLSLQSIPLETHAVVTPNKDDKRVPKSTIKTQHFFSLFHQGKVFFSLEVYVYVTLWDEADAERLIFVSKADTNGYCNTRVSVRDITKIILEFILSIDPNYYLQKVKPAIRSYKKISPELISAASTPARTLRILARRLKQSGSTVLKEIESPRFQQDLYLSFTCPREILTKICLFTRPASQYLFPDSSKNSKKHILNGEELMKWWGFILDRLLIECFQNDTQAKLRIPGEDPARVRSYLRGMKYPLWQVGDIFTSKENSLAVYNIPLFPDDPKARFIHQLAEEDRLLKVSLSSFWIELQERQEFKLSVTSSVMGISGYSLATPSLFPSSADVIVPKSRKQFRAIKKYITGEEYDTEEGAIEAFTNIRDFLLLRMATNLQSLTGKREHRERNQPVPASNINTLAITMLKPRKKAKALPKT

B1: Vps75_(1−223) (Vps75 lacking the C-terminal acidic domain) (domain or fragment, S. cerevisiae, UniProt P53853 1-223, looked up)
chain: MMSDQENENEHAKAFLGLAKCEEEVDAIEREVELYRLNKMKPVYEKRDAYIDEIAEFWKIVLSQHVSFANYIRASDFKYIDTIDKIKVEWLALESEMYDTRDFSITFHFHGIEGDFKEQQVTKVFQIKKGKDDQEDGILTSEPVPIEWPQSYDSINPDLIKDKRSPEGKKKYRQGMKTIFGWFRWTGLKPGKEFPHGDSLASLFSEEIYPFCVKYYAEAQRDL
B2: Alexa-546-labeled Vps75 (natural protein, S. cerevisiae)
chain: MMSDQENENEHAKAFLGLAKCEEEVDAIEREVELYRLNKMKPVYEKRDAYIDEIAEFWKIVLSQHVSFANYIRASDFKYIDTIDKIKVEWLALESEMYDTRDFSITFHFHGIEGDFKEQQVTKVFQIKKGKDDQEDGILTSEPVPIEWPQSYDSINPDLIKDKRSPEGKKKYRQGMKTIFGWFRWTGLKPGKEFPHGDSLASLFSEEIYPFCVKYYAEAQRDLEDEEGESGLSADGDSEDDDGSLGEVDLPLSDEEPSSKKRKV
modifications: Alexa-546 label, position not stated

What was measured:
AUC = biological target: the molecule itself; assay: AUC
[1] = biological target: T1, Rtt109 (recombinant, purified); assay: AUC
[2] = biological target: recombinant yeast (H3-H4)2 tetramer (yeast, UniProt P61830 1-136; P02309 1-103); assay: other fluorescence titration

Binder	stoichiometry N (AUC)	binding result [1]	Kd [2]
B1	2	binds	–
B2	–	–	27 nM
